Common to all, as to settings: protein: recombinant; tags: His; blunt
For data set [1], the target named is T1, HIS-RVE1 (Arabidopsis thaliana, UniProt F4KGY6 1-387). The data set can be described thus: EMSA; LightShift Chemiluminescent EMSA Kit (Pierce) per manufacturer, 5% polyacrylamide gel; buffer, salt, pH and temperature not stated.
The target of data set [2] is T1, HIS-RVE1. Kind of data set: competition; unlabelled 50x excess vs biotin-E4 probe; no effect on shift; LightShift Chemiluminescent EMSA Kit (Pierce) per manufacturer, 5% polyacrylamide gel; buffer, salt, pH and temperature not stated.
Data set [3] has as its target T1, HIS-RVE1. The data set can be described thus: competition; unlabelled 50x excess vs biotin-E3 probe; no effect on shift; LightShift Chemiluminescent EMSA Kit (Pierce) per manufacturer, 5% polyacrylamide gel; buffer, salt, pH and temperature not stated.

Results on four molecules are retold here after article PMC4987513, “Phytochrome B and REVEILLE1/2-mediated signalling controls seed dormancy and germination in Arabidopsis”.

T1 sequence (F4KGY6 whole entry): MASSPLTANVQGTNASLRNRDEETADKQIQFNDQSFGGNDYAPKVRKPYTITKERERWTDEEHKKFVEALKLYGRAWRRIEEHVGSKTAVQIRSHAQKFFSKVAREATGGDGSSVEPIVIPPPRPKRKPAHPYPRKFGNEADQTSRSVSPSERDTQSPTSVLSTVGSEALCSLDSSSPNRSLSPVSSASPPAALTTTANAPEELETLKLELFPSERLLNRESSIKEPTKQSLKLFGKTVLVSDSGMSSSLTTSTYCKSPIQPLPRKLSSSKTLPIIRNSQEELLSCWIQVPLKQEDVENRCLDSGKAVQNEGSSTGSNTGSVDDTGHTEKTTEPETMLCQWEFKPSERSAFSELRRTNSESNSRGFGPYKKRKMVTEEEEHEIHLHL

B1: GA3ox2 E3 (3 copies) WT (dsDNA)
DNA 1: GTTTAACGATATTAGTTTTTGTTTAACGATATTAGTTTTTGTTTAACGATATTAGTTTTT
DNA 2: AAAAACTAATATCGTTAAACAAAAACTAATATCGTTAAACAAAAACTAATATCGTTAAAC
As to B1, the binding result with HIS-RVE1 [1] was “binds”.

B2: GA3ox2 E4 (3 copies) WT (dsDNA)
DNA 1: AAGTATCATATCATACCAAAAAGTATCATATCATACCAAAAAGTATCATATCATACCAAA
DNA 2: TTTGGTATGATATGATACTTTTTGGTATGATATGATACTTTTTGGTATGATATGATACTT
On to B2, for which, in the data set with HIS-RVE1 [1], the binding result is “binds”.

B3: GA3ox2 E4 (3 copies) mutant (dsDNA)
DNA 1: AAGTACGTCTCAGTACCAAAAAGTACGTCTCAGTACCAAAAAGTACGTCTCAGTACCAAA
DNA 2: TTTGGTACTGAGACGTACTTTTTGGTACTGAGACGTACTTTTTGGTACTGAGACGTACTT
Take B3: in the data set with HIS-RVE1 [2], the binding result is reported as “no binding”.

B4: GA3ox2 E3 (3 copies) mutant (dsDNA)
DNA 1: GTTTAACGGGATAGGTTTTTGTTTAACGGGATAGGTTTTTGTTTAACGGGATAGGTTTTT
DNA 2: AAAAACCTATCCCGTTAAACAAAAACCTATCCCGTTAAACAAAAACCTATCCCGTTAAAC
As for B4, the binding result with HIS-RVE1 [3] was “no binding”.
